Where a chain is given by its changes, count along the chain named. In names and notes the source's numbering stands. Values belong to the binder of their own block, whether it stands above or below them.
How the values were obtained:
[1] = target: T1, CD3 on T cells / Jurkat cells (human, UniProt P07766 23-207; P04234 22-171; P09693 23-182); test: FACS on Jurkat cells
T1 construct: whole, on cells; Native CD3 complex on CD3+ T cells isolated from normal donors or on Jurkat cells; also called human CD3; CD3+ T cells
T1 sequence (P07766 23-207, chain 1 of 3): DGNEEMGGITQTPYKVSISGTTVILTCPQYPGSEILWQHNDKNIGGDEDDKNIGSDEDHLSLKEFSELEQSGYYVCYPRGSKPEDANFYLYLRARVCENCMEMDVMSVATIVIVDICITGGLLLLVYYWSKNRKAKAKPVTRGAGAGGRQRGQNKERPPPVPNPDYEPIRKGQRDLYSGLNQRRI
T1 sequence (P04234 22-171, chain 2 of 3): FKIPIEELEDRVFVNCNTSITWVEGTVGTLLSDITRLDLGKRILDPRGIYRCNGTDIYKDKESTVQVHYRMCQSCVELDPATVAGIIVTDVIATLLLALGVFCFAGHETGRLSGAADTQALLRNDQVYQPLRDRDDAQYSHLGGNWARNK
T1 sequence (P09693 23-182, chain 3 of 3): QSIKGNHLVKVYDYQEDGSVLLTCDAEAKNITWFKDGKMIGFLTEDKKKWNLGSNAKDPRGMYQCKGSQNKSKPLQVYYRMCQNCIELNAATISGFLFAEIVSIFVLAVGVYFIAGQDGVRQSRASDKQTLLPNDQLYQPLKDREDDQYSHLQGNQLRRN

GPRC5D on MM.1S cells [2] = target: T2, GPRC5D on MM.1S cells (human, UniProt Q9NZD1 1-345); test: FACS on MM.1S cells
T2 construct: whole, on cells; MM.1S is called a GPRC5D positive expressed cell line and human multiple myeloma cells; also called G-protein coupled receptor family C group 5 member D
T2 sequence (Q9NZD1 whole entry): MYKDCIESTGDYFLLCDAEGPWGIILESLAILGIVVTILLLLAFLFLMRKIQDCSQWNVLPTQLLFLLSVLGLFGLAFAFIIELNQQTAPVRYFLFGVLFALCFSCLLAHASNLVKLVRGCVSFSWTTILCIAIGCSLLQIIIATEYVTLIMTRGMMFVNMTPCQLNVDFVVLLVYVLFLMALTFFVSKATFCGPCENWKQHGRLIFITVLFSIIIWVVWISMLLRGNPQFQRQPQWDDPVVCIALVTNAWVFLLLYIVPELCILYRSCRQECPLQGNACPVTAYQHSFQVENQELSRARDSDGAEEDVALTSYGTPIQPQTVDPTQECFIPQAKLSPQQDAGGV
Protocol: The binding affinities of the generated humanized Fab-scFv-Fab bispecific antibodies were determined by FACS analysis. […] (a) Jurkat cells were washed by Staining Buffer (PBS+1% BSA) in round bottom 96-well plate. [0833] (b) Antibody dilutions and cells were added to each well, incubated at 4 degrees for 1 hour. [0834] (c) Cells were spined down at 300 g for 3 minutes, and the supernatants were discarded. [0835] (d) Cells were washed with Staining Buffer. […] (e) Step (d) was repeated and the cells were incubated for 0.5 hours at 4 degrees with secondary antibody in Staining Buffer. [0837] (f) After incubation, step (d)-(e) were repeated. […] (g) Staining Buffer was added and fluorescence signals were recorded by flow cytometry.
The binding affinities of the generated humanized Fab-scFv-Fab bispecific antibodies were determined by FACS analysis. The ATG-Bis-40E9 was used as positive control and hIgG1 isotype was used as negative control. The protocol for FACS analysis is identical to that described in Example 3.2, except that MM.1S cells were used in this example.

GPRC5D on MM.1S cells [3] = target: T2, GPRC5D on MM.1S cells; test: cell-based or functional assay
GPRC5D on MM.1S cells [4] = target: T2, GPRC5D on MM.1S cells; test: cell-based or functional assay; remark: listed apart in the source

B1: Bis-40E9-L2H3-D99E.H (bispecific antibody)
VH: EVQLVQSGAEVKKPGASVKVSCKASGYTFTSYVIHWVRQAPGQGLEWMGYFNPYNDGTKYNEEFKGRVTLTSDKSTSTAYMELRSLRSDDTAVYYCARGGVRRYFDVWGQGTTVTVSS
VL: DIQMTQSPSSLSASVGDRVTITCRASQDIGSNLNWLQQKPGKAIKRLIYATFGLDSGVPSRFSGSRSGTDFTLTISSLQPEDFATYYCQQYASFPYTFGGGTKVEIK
scFv: EVQLVQSGAEVKKPGSSVKVSCKASGYTFSSYVIHWVRQAPGQCLEWMGYINPYNDVIKYNEKFKGRVTLTSDKSTSTAYMELSSLRSEDTAVYYCARESYYSYDGFAYWGQGTLVTVSSGGGGSGGGGSGGGGSGGGGSEIVLTQSPDFQSVTPKEKVTITCSASSSVSYMHWYQQKPDQSPKRLIYDTSKLASGVPSRFSGSGSGTDFTLTINSLEAEDAATYYCQQWSSNPPTFGCGTKVEIK
notes: L234A/L235A
binding result [1]: binds

B2: Bis-40E9-L2H4 (bispecific antibody)
VH: B1 VH
VL: B1 VL
scFv: B1 scFv with M48I, V68A, E99D
notes: L234A/L235A
binding result [1]: binds

B3: Bis-40E9-L2H1 (bispecific antibody)
VH: B1 VH
VL: B1 VL
scFv: B1 scFv with Y27G, L70I, S72A, E99D
notes: Fab-scFv-Fab (2+1): two humanized anti-GPRC5D Fabs and one anti-CD3 scFv (VH-(GGGGS)4-VL) joined by (GGGGS)2 linkers to CH1 of one Fab and to CH2; L234A/L235A
binding result [1]: binds

B6: Bis-40E9-L3H1 (bispecific antibody)
VH: B1 VH
VL: B1 VL
scFv: B1 scFv with Y27G, L70I, S72A, E99D, L186W, F210Y
notes: L234A/L235A
binding result [1]: binds

Second part, led by results:

binding result [1]: binds
B4: Bis-40E9-L2H3-G106A.H (bispecific antibody)
VH: B1 VH
VL: B1 VL
scFv: B1 scFv with E99D, G106A
notes: L234A/L235A

binding result [1]: binds
B5: Bis-40E9-L2H3-D56G.H (bispecific antibody)
VH: B1 VH
VL: B1 VL
scFv: B1 scFv with D56G, E99D
notes: L234A/L235A

EC50 (GPRC5D on MM.1S cells [2]): 2.61 nM
Top signal (GPRC5D on MM.1S cells [2]): 2260 MFI
EC50, Jurkat-NFAT-Luciferase assay in the presence of MM.1S cells (GPRC5D on MM.1S cells [4]): 0.11 nM
Top RLU, Jurkat-NFAT-Luciferase assay in the presence of MM.1S cells (GPRC5D on MM.1S cells [4]): 368 RLU
B7: Bis-108+ch147 (bispecific antibody)
heavy 1: not shown
heavy 2: EVQLVQSGAEVKKPGASVKVSCKASGYTFTSYVIHWVRQAPGQGLEWMGYFNPYNDGTKYNEEFKGRVTLTSDKSTSTAYMELRSLRSDDTAVYYCARGGVRRYFDVWGQGTTVTVSSASTKGPSVFPLAPSSKSTSGGTAALGCLVKDYFPEPVTVSWNSGALTSGVHTFPAVLQSSGLYSLSSVVTVPSSSLGTQTYICNVNHKPSNTKVDKKVEPKSCGGGGSGGGGSQVQLQQPGTELVKPGTSVKLSCKASGYTFTSYWMHWVKQRPGQCLEWIGNINPSNGATNYNEKFKSKATLTVDKSSSTAYMQLSSLTSEDSAVYYCARDRSSQYYFDYWGQGTTLTVSSGGGGSGGGGSGGGGSGGGGSDIVMSQSPSSLAVSAGEKVTMSCKSSQSLLNSRSRKNYLAWYQQKPGQSPKLLIYWASTRESGVPDRFTGSGSGTDFTLTISSVQAEDLAVYYCTQSYTLRTFGCGTKLEIKGGGGSGGGGSDKTHTCPPCPAPEAAGGPSVFLFPPKPKDTLMISRTPEVTCVVVDVSHEDPEVKFNWYVDGVEVHNAKTKPREEQYNSTYRVVSVLTVLHQDWLNGKEYKCKVSNKALPAPIEKTISKAKGQPREPQVCTLPPSREEMTKNQVSLSCAVKGFYPSDIAVEWESNGQPENNYKTTPPVLDSDGSFFLVSKLTVDKSRWQQGNVFSCSVMHEALHNHYTQKSLSLSPGK
light: DIQMTQSPSSLSASVGDRVTITCRASQDIGSNLNWLQQKPGKAIKRLIYATFGLDSGVPSRFSGSRSGTDFTLTISSLQPEDFATYYCQQYASFPYTFGGGTKVEIKRTVAAPSVFIFPPSDEQLKSGTASVVCLLNNFYPREAKVQWKVDNALQSGNSQESVTEQDSKDSTYSLSSTLTLSKADYEKHKVYACEVTHQGLSSPVTKSFNRGEC
notes: Fab-scFv-Fab format
IC50 of T-cell dependent cytotoxicity on MM.1S cells (GPRC5D on MM.1S cells [3]): 0.53 nM
Top (%) target cell killing, MM.1S cells (GPRC5D on MM.1S cells [3]): 99.4%
